# Experimental data taken from US20240218060A1.
# Target: human neonatal Fc-receptor (FcRn) (human) (UniProt P55899)
# Test: FcRn affinity chromatography
row,FcRn-affinity column retention time,Substance
1,41.3 min,IgG1 Fc-region molecule with L234A/L235A/P329G and Y436A (symmetric)

# Target: human neonatal Fc-receptor (FcRn) (human) (UniProt P55899)
# Test: FcRn affinity chromatography, anti-HER2 antibody
row,Substance,retention time on FcRn affinity column
1,"anti-HER2 antibody, symmetric T256H",46 min
2,"anti-HER2 antibody, symmetric K317H",46.3 min
3,"anti-HER2 antibody, wild-type",46.3 min
4,"anti-HER2 antibody, symmetric E258H",45.6 min
5,"anti-HER2 antibody, symmetric N434H",52 min
6,"anti-HER2 antibody, symmetric K290H",46.2 min
7,"anti-HER2 antibody, symmetric E430H",46.4 min
8,"anti-HER2 antibody, symmetric Q311H",46.3 min

# More lines, now with the values ahead:
row,retention time on FcRn affinity column,Substance
1,45.2 min,"anti-HER2 antibody, symmetric K288E"
2,45.5 min,"anti-HER2 antibody, symmetric L309H"
3,41.4 min,"anti-HER2 antibody, symmetric R255D"

# Target: human neonatal Fc-receptor (FcRn) (human) (UniProt P55899)
# Test: FcRn affinity chromatography, bispecific KiH antibody
row,Substance,retention time on FcRn affinity column
1,"bispecific antibody (knobs-into-holes), one chain with H310A/H433A/Y436A",46.7 min
2,"bispecific antibody (knobs-into-holes), one chain with L251D/L314D/L432D",46.3 min
3,"bispecific antibody (knobs-into-holes), one chain with H435A",48.8 min
4,"bispecific antibody (knobs-into-holes), one chain with M252Y/S254T/T256E",56.2 min

# The next lines start with the values.
row,retention time on FcRn affinity column,Substance
1,48.8 min,"bispecific antibody (knobs-into-holes), one chain with I253A"
2,48.4 min,"bispecific antibody (knobs-into-holes), one chain with H310A"

# Target: human neonatal Fc-receptor (FcRn) (human) (UniProt P55899)
# Test: FcRn affinity chromatography of a knobs-into-holes bispecific antibody
row,Substance,RT (Min) on the FcRn affinity column
1,"bispecific antibody (knobs-into-holes), first chain I253A/H310A/H435A, second chain I253A/H310A/H435A",0 min
2,"bispecific antibody (knobs-into-holes), one chain with H435A",48.8 min
3,"bispecific antibody (knobs-into-holes), first chain I253A/H310A/H435A, second chain H310A",0 min

# Continued, values first:
row,RT (Min) on the FcRn affinity column,Substance
1,0 min,"bispecific antibody (knobs-into-holes), first chain I253A/H310A/H435A, second chain H435A"
2,48.8 min,"bispecific antibody (knobs-into-holes), one chain with I253A"
3,48.4 min,"bispecific antibody (knobs-into-holes), one chain with H310A"
